Consider two molecules from publication PMC9242856, “Structural basis of sodium-dependent bile salt uptake into the liver” (Nature, 2022).

Test [1] has as its target NTCPEM expressed on HEK 293F cells (human) (UniProt Q14973).
Test [2] deals with T1, wild-type human Na+-taurocholate co-transporting polypeptide (NTCP) expressed on HEK 293F cells (human, UniProt Q14973).
T1 construct: Na+-taurocholate co-transporting polypeptide (NTCP, SLC10A1), human, wild type; also called wild-type NTCP; SLC10A1; source: HEK 293F, transient transfection, on cells
T1 sequence (Q14973 whole entry): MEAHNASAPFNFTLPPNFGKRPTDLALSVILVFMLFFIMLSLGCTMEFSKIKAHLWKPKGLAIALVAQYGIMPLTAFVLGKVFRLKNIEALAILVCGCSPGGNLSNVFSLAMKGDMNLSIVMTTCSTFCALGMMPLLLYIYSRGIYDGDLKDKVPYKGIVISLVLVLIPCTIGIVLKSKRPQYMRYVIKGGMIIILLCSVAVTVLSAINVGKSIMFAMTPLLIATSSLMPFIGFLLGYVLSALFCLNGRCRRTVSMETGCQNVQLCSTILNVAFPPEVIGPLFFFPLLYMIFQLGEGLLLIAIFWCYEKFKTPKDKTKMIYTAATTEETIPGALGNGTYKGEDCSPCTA
Kind of test: fluorescent ligand labelling of cells (plate reader); HEK 293F cells expressing NTCP constructs in PBS; labelled with 10 nM (wild-type NTCP) or 50 nM (NTCPEM) purified myr-preS1_48-GFP for 30 min; where tested, pre-incubation with 10 uM nanobody for 1.5 h; GFP fluorescence, excitation 470 nm, emission 508 nm. Conditions: one partner purified.

NTCPEM expressed on HEK 293F cells (human), sequence (Q14973 other isoform, or with tags, fused parts or gaps, change not shown): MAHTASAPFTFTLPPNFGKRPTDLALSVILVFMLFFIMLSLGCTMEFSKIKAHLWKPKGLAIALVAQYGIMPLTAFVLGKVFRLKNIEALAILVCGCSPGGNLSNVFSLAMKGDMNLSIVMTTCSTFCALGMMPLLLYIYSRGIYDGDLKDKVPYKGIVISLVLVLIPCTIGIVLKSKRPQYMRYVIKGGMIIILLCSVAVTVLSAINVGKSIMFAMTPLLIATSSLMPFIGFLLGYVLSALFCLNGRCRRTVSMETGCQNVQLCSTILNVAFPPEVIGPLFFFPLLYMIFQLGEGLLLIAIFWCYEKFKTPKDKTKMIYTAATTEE

B1: Nanobody 87 (VHH)
VHH: QVQLVESGGGLVQAGGSLRLSCAVSGRTTANYNMGWFRQAPGKEREFVAGIKWSSGSTYVADSAKGRFTISRDNAKNSVYLQMDSLKPEDTALYYCAANYYGVSWFLISPSSYDYWGQGTQVTVSS
notes: llama (Lama glama) nanobody raised against NTCPCO; the nanobody chain of PDB 7PQG; Tags are those of the phage display vector pMESy4 as told for the library; also called Nb87; source: E. coli periplasm, purified (Ni-NTA, SEC)
Regarding B1, in test [1], the IC50 of inhibition of Na+-induced uptake of the fluorescent substrate tauro-nor-THCA-24-DBD by cells expressing NTCPEM came out at 180 nM. Besides, the binding result in test [2] is recorded as “binds”.

B2: Nanobody 91 (VHH)
VHH: QVQLVESGGGLVEAGGSLRLSCAASTNLRSYAMAWFRQAPGKEREFVSFINWNYGNTRYADSVKGRFTISRDNAKITVYLQMNSLKPEDTAVYYCAAATIGRLAGIDSTTLYDYWGQGTQVTVSS
As to B2, the IC50 of inhibition of Na+-induced uptake of the fluorescent substrate tauro-nor-THCA-24-DBD by cells expressing NTCPEM in test [1] came to 34 nM.
